Assay [1] deals with T1, Recombinant human transferrin receptor 1 (TfR1), His6-tagged, a.a. 89-760 (human, UniProt P02786 89-760).
T1 construct: range 89-760; SPR used ACRO Biosystems CD1-H5243 (His6, a.a. 89-760); also called Human TfR1; CD71; not shown: His6 tag
The assay is described as follows: SPR, TfR1 on chip; Table 2, geomean of n = 5. A general note: SPR reads the build-up and loss of mass on a sensor chip optically.

In assay [2] the target is T2, Recombinant cynomolgus transferrin receptor 1 (TfR1), His6-tagged, a.a. 89-760 (cynomolgus, UniProt H9EXL1 89-760 (rhesus entry)).
T2 construct: range 89-760; Bought, ACRO Biosystems TFR-C524a; also called Cyno TfR1; Cynomolgus TfR1; not shown: His6 tag
The assay is described as follows: SPR, TfR1 on chip; Table 2, geomean of n = 2.

Starred links: 1 amine or outer side, 2 acyl side, 3 side chain; linkers in the order of their positions; H or OH if unused. Positions of bridges follow the written chain, without caps; N, C: chain ends. No end group written: not given here. TATB = O=C(C[*:1])N1CN(C(=O)C[*:2])CN(C(=O)C[*:3])C1

T2 sequence (chain, as listed by the source): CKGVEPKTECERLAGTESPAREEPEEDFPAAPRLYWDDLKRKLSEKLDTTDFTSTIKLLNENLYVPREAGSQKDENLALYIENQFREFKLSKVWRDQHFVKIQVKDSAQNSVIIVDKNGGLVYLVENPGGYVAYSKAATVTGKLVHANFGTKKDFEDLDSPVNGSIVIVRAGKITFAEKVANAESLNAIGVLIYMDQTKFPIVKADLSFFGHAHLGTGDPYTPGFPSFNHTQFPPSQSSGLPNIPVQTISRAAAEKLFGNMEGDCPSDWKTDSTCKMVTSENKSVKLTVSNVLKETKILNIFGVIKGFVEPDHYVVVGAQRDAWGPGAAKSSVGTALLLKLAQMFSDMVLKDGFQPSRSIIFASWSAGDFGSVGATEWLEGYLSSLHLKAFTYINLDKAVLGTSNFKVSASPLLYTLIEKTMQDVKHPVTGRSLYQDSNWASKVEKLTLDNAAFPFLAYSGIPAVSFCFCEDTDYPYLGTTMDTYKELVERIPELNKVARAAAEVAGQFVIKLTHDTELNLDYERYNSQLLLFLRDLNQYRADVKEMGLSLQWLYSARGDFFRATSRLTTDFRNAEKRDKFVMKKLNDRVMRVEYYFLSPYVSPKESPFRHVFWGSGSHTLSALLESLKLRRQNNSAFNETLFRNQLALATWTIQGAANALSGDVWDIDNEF
T1 sequence (P02786 89-760 limits assumed): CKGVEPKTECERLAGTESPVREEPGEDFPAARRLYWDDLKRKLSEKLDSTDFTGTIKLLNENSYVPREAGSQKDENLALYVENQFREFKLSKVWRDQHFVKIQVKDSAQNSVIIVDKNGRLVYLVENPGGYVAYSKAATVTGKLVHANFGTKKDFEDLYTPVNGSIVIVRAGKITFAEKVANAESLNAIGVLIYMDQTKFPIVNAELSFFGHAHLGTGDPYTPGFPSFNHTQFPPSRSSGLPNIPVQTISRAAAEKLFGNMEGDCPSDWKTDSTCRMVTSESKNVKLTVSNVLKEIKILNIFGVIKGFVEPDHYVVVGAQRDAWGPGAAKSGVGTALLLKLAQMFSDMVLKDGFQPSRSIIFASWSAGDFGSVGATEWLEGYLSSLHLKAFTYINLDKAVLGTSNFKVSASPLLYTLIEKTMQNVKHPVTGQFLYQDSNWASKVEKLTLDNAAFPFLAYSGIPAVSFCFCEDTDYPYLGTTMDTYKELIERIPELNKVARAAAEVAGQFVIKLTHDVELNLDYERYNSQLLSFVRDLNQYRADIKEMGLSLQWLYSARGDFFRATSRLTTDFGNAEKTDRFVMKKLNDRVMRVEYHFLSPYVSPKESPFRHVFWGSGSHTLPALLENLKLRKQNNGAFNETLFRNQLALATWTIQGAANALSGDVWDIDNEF

A word on the Kd: it is the constant that tells how readily two partners part at equilibrium. For the molecule ACSPDAHLGCISYCA (linker 2-10-14 via TATB) [BCY15468], in assay [1], the dissociation constant (Kd) was determined as 37.8 nM.

Take ACPPDSWQGCISYCA (Cys Ci, Cii, Ciii on TATB scaffold) [BCY13989]: in assay [2], the Kd was determined as 3440 nM.

These data come from patent US20240391959A1 (Bicycle, published 2024).
